Biological target: GST-Cullin5 (NTD), N-terminal domain of murine cullin5 (Met1-Leu385) with V341R and L345D (murine) (UniProt Q9D5V5)
Experiment: SPR

Sequence of GST-Cullin5 (NTD), N-terminal domain of murine cullin5 (Met1-Leu385) with V341R and L345D (murine) (Q9D5V5 1-385 V341R/L345D): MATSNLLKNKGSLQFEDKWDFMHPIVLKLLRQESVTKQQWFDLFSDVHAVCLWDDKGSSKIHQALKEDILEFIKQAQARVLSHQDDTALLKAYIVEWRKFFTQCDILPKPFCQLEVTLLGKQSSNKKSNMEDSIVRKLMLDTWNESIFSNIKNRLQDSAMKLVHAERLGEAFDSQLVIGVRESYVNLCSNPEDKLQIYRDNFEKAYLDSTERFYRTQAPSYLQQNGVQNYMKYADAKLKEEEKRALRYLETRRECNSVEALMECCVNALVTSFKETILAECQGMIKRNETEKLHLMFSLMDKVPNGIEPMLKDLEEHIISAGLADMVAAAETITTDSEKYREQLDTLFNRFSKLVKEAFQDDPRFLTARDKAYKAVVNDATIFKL

KD by Biacore relative to KD by ITC (fold): 4 fold
half-life of the complex: 10 s
Substance: SOCS3 box/elonginBC ternary complex (from UniProt Q15370 1-118; P83940 17-112)
